The values that follow come from PMC6288289.

This assay deals with HAF protein (trimeric recombinant H5N1 hemagglutinin ectodomain with the bacteriophage T4 fibritin fold on trimerization sequence) (influenza A virus A/Anhui/1/2005 (H5N1) | bacteriophage T4). Briefly: SEC; […], running buffer pH 8.0 ([…]. (In gel filtration, larger molecules generally elute earlier.)

For the substance “HAF protein (trimeric recombinant H5N1 hemagglutinin ectodomain with the bacteriophage T4 fibritin fold on trimerization sequence)”, the stoichiometry N amounted to 3.

The term stoichiometry N denotes the number of molecules, sites or subunits per partner or assembly.
